This note sets out measurements from patent US20220406376A1 (MacroGenics, published 2022).

Numbering of substitutions follows the chain as printed.

Usually EC50 (read off the curve) stands for the concentration that produces a half-maximal response. A high value points to a need for much substance. The Kd is the equilibrium constant for the complex coming apart. Low readings indicate higher affinity, high ones lower affinity. Broadly, the koff is the rate constant with which the complex falls apart. A lower koff goes with slow dissociation. As usually defined, the kon is a measure of how fast the partners come together. A high value points to fast association.

The target in experiment [1] is T1, CD137 on the surface of cells (activated human T cells; engineered CHO cells) (human, UniProt Q07011 24-255).
T1 construct: whole, on cells; also called human CD137; cell surface expressed CD137
T1 sequence (Q07011 24-255, change not shown): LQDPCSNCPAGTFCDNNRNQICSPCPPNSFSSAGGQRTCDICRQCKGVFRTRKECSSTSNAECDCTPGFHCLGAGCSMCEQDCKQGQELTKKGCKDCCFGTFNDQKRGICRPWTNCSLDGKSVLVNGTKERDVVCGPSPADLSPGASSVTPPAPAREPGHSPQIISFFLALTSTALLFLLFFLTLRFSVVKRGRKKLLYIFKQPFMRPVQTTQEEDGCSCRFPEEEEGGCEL
Description: flow cytometry on activated pan T cells gated CD8+, anti-hFc APC MFI. The method, then: Three antibodies were selected for further study. For such evaluations, purified pan T-cells (see above) were stimulated with anti-CD3/CD28 beads (cells:beads=1:1) for 72 hours in the presence of IL-2 (100 U/mL). 100 μL of activated T cells (1.0×10⁶ cells/mL) and 100 μL of serially diluted (5- or 10-fold dilutions) test article (antibody or bispecific diabody) was added to each well of microtiter assay plate(s), mixed and incubated at RT for 45 min. The cells were washed with FACS Buffer and secondary antibody (anti-human-Fc region-APC) was then added to each well; mixed and incubated at RT for 30 min. Cells were then washed FACS Buffer and T cell surface marker antibodies (anti-CD4 labeled with V510, and anti-CD8 labeled with FITC) were then added to each well; mixed and incubated at RT for 30 min. Cells were washed and resuspended in 100 μL FACS Buffer and analyzed by flow cytometry (BD LSR Fortessa or FACSCanto 11) for cell event collection. Data analysis were performed via FloJo v10.
Chimeric antibodies having human IgG1 Fc regions and murine VH/VL domains were generated (designated: chCD137 MAB-1, chCD137 MAB-2, chCD137 MAB-3, chCD137 MAB-4 and chCD137 MAB-5, respectively), and were tested for their ability to bind to activated CD8⁺ T cells.

Experiment [2] deals with T2, HER2/neu on the surface of target cells (N87, JIMT-1, MCF-7, MDA-MB231) (UniProt P04626 23-1255, limits assumed).
T2 construct: whole, on cells
Description: flow cytometry on N87 gastric cancer cells, anti-hFc APC MFI. On the technique in general: Flow cytometry measures light scatter and fluorescence of single cells or particles in a stream.

Experiment [3] has as its target T1, CD137 on the surface of cells …. Description: flow cytometry on activated pan T cells gated CD8, anti-hFc APC MFI.
Experiment [4] has the same target. The experiment is described as above. The source holds these as a separate data set.
The target is the same in experiment [5]. Description: flow cytometry on activated CD8+ T cells (CD8 FITC), anti-hFc APC MFI.
For experiment [6] the target is unchanged. Description: flow cytometry on CD137-expressing CHO cells (CHO/137), anti-hFc APC MFI.
For experiment [7] the target is unchanged. Described as above. The source holds these as a separate data set.
Experiment [8] shares this target. Description: flow cytometry on activated CD8+ T cells (donor D53781, CD8 FITC), anti-hFc APC MFI.
In experiment [9] the target is T2, HER2/neu on the surface of target cells …. Description: flow cytometry on N87 cells, anti-hFc APC MFI. The protocol: (§1) CD137×TA Binding Molecules, DART-B, DART-D, DART-G and the control molecules DART-3 and DART-6 were additionally evaluated for their ability to bind to HER2/neu expressed on N87 cells (FIG. 13A) and JIMT-1 cells (FIG. 13B). For such evaluation, 100 μL of HER2/neu expressing target cells (1.0×1⁰⁶ cells/mL) and 100 μL of serially diluted (5- or 10-fold dilutions) test article (bispecific diabody) were added to each well of microtiter assay plate(s), mixed and incubated at RT for 45 min. The cells were washed with FACS Buffer and secondary antibody (anti-human-Fc region-APC) was then added to each well; mixed and incubated at RT for 30 min. Cells were washed and resuspended in 100 μL FACS Buffer and analyzed by flow cytometry (BD LSR Fortessa or FACSCanto 11) for cell event collection. Data analysis were performed via FloJo v10.

For experiment [10] the target is unchanged. Description: flow cytometry on JIMT-1 cells, anti-hFc APC MFI. The method, then: as §1
For experiment [11], the target named is T3, extracellular portion of human CD137 fused to a histidine-containing peptide (human, UniProt Q07011 24-186).
T3 construct: extracellular domain; also called huCD137; His-tagged soluble human CD137
Description: SPR (BIACORE); antibody captured on anti-human Fc; huCD137 25 and 100 nM; 1:1 Langmuir. The method, then: Thus, an extracellular portion of human CD137 fused to a histidine-containing peptide (“huCD137”) was passed over a surface coated with immobilized antibody. Briefly, each test molecule was captured onto an F(ab)₂ goat-anti-human Fc-coated surface and then incubated in the presence of different concentrations (25 nM and 100 nM) of huCD137. The kinetics of binding were determined via BIACORE® analysis binding (normalized 1:1 Langmuir binding model).
Background: Surface plasmon resonance follows binding to a sensor surface in real time, without labels.

B1: chCD137 MAB-5 (antibody, V domains shown)
VH: QVQLKESGPGLVAPSQSLSITCTVSGFSLTSYDISWIRQPPGKGLEWLGVVWTGGGTNYNSAFMSRLSISKDNSKSQVFLKMNSLQTDDTAIYYCERVDYWGQGTSVTVSS
VL: DVVMTQTPLSLPVSLGDQASISCRSSQSLVHSNGNTYLHWYLQKPGQSPKLLIYKVSNRFSGVPDRFSGSGSGTDFTLKISRVEAEDLGVYFCSQSTHVPWTFGGGTKLEIK
As for B1, in experiment [1], the “EC50 (read off the curve)” value is around 0.1 µg/mL.

B2: DART-6 (bispecific antibody, human IgG1, kappa, L234A L235A)
heavy: QVTLRESGPALVKPTQTLTLTCTFSGFSLSTSGMSVGWIRQPPGKALEWLADIWWDDKKDYNPSLKSRLTISKDTSKNQVVLKVTNMDPADTATYYCARSMITNWYFDVWGAGTTVTVSSASTKGPSVFPLAPSSKSTSGGTAALGCLVKDYFPEPVTVSWNSGALTSGVHTFPAVLQSSGLYSLSSVVTVPSSSLGTQTYICNVNHKPSNTKVDKRVEPKSCDKTHTCPPCPAPEAAGGPSVFLFPPKPKDTLMISRTPEVTCVVVDVSHEDPEVKFNWYVDGVEVHNAKTKPREEQYNSTYRVVSVLTVLHQDWLNGKEYKCKVSNKALPAPIEKTISKAKGQPREPQVYTLPPSREEMTKNQVSLSCAVKGFYPSDIAVEWESNGQPENNYKTTPPVLDSDGSFFLVSKLTVDKSRWQQGNVFSCSVMHEALHNRYTQKSLSLSPGK
light: DIQMTQSPSTLSASVGDRVTITCRASQSVGYMHWYQQKPGKAPKLLIYDTSKLASGVPSRFSGSGSGTEFTLTISSLQPDDFATYYCFQGSGYPFTFGGGTKLEIKRTVAAPSVFIFPPSDEQLKSGTASVVCLLNNFYPREAKVQWKVDNALQSGNSQESVTEQDSKDSTYSLSSTLTLSKADYEKHKVYACEVTHQGLSSPVTKSFNRGEC
chain 1: QVTLRESGPALVKPTQTLTLTCTFSGFSLSTSGMSVGWIRQPPGKALEWLADIWWDDKKDYNPSLKSRLTISKDTSKNQVVLKVTNMDPADTATYYCARSMITNWYFDVWGAGTTVTVSSASTKGPSVFPLAPSSKSTSGGTAALGCLVKDYFPEPVTVSWNSGALTSGVHTFPAVLQSSGLYSLSSVVTVPSSSLGTQTYICNVNHKPSNTKVDKRVEPKSCDKTHTCPPCPAPEAAGGPSVFLFPPKPKDTLMISRTPEVTCVVVDVSHEDPEVKFNWYVDGVEVHNAKTKPREEQYNSTYRVVSVLTVLHQDWLNGKEYKCKVSNKALPAPIEKTISKAKGQPREPQVYTLPPSREEMTKNQVSLWCLVKGFYPSDIAVEWESNGQPENNYKTTPPVLDSDGSFFLYSKLTVDKSRWQQGNVFSCSVMHEALHNHYTQKSLSLSPGGGGSGGGSGGGDIQMTQTTSSLSASLGDRVTISCRPSQDISNYLNWYQQKPDGTVKLLIYYTSRLRSGVPSRFSGSGSGTDYSLTISNLEQEDIATYFCQQGDTLPYTFGGGTKLEIKGGGSGGGGQVQLQQPGAELVRPGASVKLSCKASGYTFTSYWINWVKQRPGQGLEWIGNIYPSDSYTNYNQKFKDKATLTVDKSSSTAYMQLSSPTSEDSAVYYCTRDYGSSYSFDYWGQGTTLTVSSGGCGGGEVAALEKEVAALEKEVAALEKEVAALEK
chain 2: DIQMTQTTSSLSASLGDRVTISCRPSQDISNYLNWYQQKPDGTVKLLIYYTSRLRSGVPSRFSGSGSGTDYSLTISNLEQEDIATYFCQQGDTLPYTFGGGTKLEIKGGGSGGGGQVQLQQPGAELVRPGASVKLSCKASGYTFTSYWINWVKQRPGQGLEWIGNIYPSDSYTNYNQKFKDKATLTVDKSSSTAYMQLSSPTSEDSAVYYCTRDYGSSYSFDYWGQGTTLTVSSGGCGGGKVAALKEKVAALKEKVAALKEKVAALKE
notes: also called RSV×CD137 control molecule; CD137×RSV control molecule
As for B2, in [2], the binding result is listed as “no binding”. Further, the “EC50 (read off the curve)” value was around 0.2 nM in experiment [3]; around 0.1 nM in [4]; around 0.02 µg/mL in experiment [5]; around 0.02 µg/mL in experiment [6]; around 0.02 µg/mL in experiment [7]; around 0.02 µg/mL in [8].

B3: DART-3 (bispecific antibody)
chain 1: not shown
chain 2: DIQMTQSPSTLSASVGDRVTITCRASQSVGYMHWYQQKPGKAPKLLIYDTSKLASGVPSRFSGSGSGTEFTLTISSLQPDDFATYYCFQGSGYPFTFGGGTKLEIKGGGSGGGGQVQLVQSGAEVKKPGASVKVSCKASGYTFTNYGMNWVRQAPGQGLEWMGWINTNIGEPTYTEEFKGRVTMTRDTSISTAYMELSRLRSDDTAVYYCARDDGYGNRVSYWGQGTLVTVSSGGCGGGKVAACKEKVAALKEKVAALKEKVAALKE
notes: also called HER2×RSV control molecule; HER2/neu×RSV control molecule
Consider B3, for which the “EC50 (read off the curve)” value in [9] was around 0.05 µg/mL; in experiment [10], around 0.03 µg/mL; in experiment [2], around 0.5 nM. In addition, the binding result in [3] is reported as “no binding”.

B4: CD137 MAB-1 (antibody, V domains shown)
VH: QVQLQQWGAGLLKPSETLSLTCAVYGGSFSGYYWSWIRQSPEKGLEWIGEINHGGYVTYNPSLESRVTISVDTSKNQFSLKLSSVTAADTAVYYCARDYGPGNYDWYFDLWGRGTLVTVSS
VL: EIVLTQSPATLSLSPGERATLSCRASQSVSSYLAWYQQKPGQAPRLLIYDASNRATGIPARFSGSGSGTDFTLTISSLEPEDFAVYYCQQRSNWPPALTFGGGTKVEIK
notes: also called urelumab; BMS-663513
B4: the “EC50 (read off the curve)” value in experiment [1] was around 0.005 µg/mL.

B5: chCD137 MAB-3 (antibody, V domains shown)
VH: QVQLQQPGAELVRPGASVKLSCKASGYTFTSYWINWVKQRPGQGLEWIGNIYPSDSYTNYNQKFKDKATLTVDKSSSTAYMQLSSPTSEDSAVYYCTRDYGSSYSFDYWGQGTTLTVSS
VL: DIQMTQTTSSLSASLGDRVTISCRPSQDISNYLNWYQQKPDGTVKLLIYYTSRLRSGVPSRFSGSGSGTDYSLTISNLEQEDIATYFCQQGDTLPYTFGGGTKLEIK
Regarding B5, in [1], the “EC50 (read off the curve)” value was around 0.002 µg/mL. In experiment [11], this molecule displayed a Kd of 23 nM, a koff of 0.02 s⁻¹ and a kon of 890000 M⁻¹ s⁻¹.

B6: chCD137 MAB-4 (antibody, V domains shown)
VH: QVQLQQPGAELVRPGASVKLSCKASGYTFTSYWINWVKQRPGQGLEWIGNIYPSDSYTNYDQKFKDKATLTVDKSSSTAYMQLSSPTSEDSAVYYCTKSGEYGKIGYYAMDYWGQGTSVTVSS
VL: B5 VL with P25A, R55H, D92N
With B6, in experiment [1], the “EC50 (read off the curve)” value was around 0.02 µg/mL. Moreover, in experiment [11], the Kd was 6.1 nM, the koff is 0.00092 s⁻¹ and the kon is 150000 M⁻¹ s⁻¹.
